According to the supplement of paper PMC9170038:

Test system: MS2 coat protein
Assay: apparent KD of MS2 coat protein; designed switch direction (-1 OFF switch, 1 ON switch): -1; higher = weaker reporter binding
Outline: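 Designed RNA switches with common flanks were made on Illumina chips by stalled E. coli RNA polymerase. Titration with SNAP-549-labelled MS2 coat protein doubled from 0.7 or 1.5 nM up to 3 µM. Apparent KD is each design's median over clusters after curve-fitting normalised fluorescence.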

[1] = input ligand: microRNA oligo, concentration not stated
[2] = Eterna round: R95, input ligand: FMN 200 uM
[3] = Eterna round: R95, input ligand: microRNA oligo, concentration not stated
[4] = Eterna round: R95, input ligand: none

Sequence	apparent KD of MS2 coat protein (input ligand: FMN 200 uM) [nM]	apparent KD of MS2 coat protein (input ligand: none) [nM]	apparent KD of MS2 coat protein [1] [nM]	apparent KD of MS2 coat protein [2] [nM]	apparent KD of MS2 coat protein [3] [nM]	apparent KD of MS2 coat protein [4] [nM]
GCCAUGUGAGGAUAUGUGGUCGAAUAUGAAAGUGAUUGACCAUAGAAGGCACAUGAGGAUCACCCAUGUCCUUU [Eternabot (L2) Solution 64] (Eterna round: R97, puzzle: Exclusion 4)	131	27.3				
CCGAAACAUGAGGAUCACCCAUGUGAGGAUAUGAGCGUCUAGUUGAGAGAUUGGACGCUCAGAAGGCACAUUGG [JR_Ex1_Sub075] (Eterna round: R97, puzzle: Exclusion 1)	76.7	121				
GGAUAUAAGGAAGGAUAUGAGCGCAACUGACGAUCAGAAGGUCCACAUGAGGAUCACCCAUGUGAUCUAUCAAUAUUAUACAUG [Prohibition 94 - Jieux - Exclusion NG 1] (Eterna round: R96, puzzle: Exclusion NG 1)	264	115	52.9			
AAUAGUCGGUAGGAUAUCCACGGAUGACCGGCAGGAGAAGGGCCGACUUGAGGAUCACCCAAGUAUGGUCCUAA [Texeonxe] (Eterna round: R97, puzzle: Exclusion 6)	15.9	14.5				
CACCGUUACAUAGGAUAUGUUACAUGAGGAUCACCCAUGUAAUAAAUGAGAAUUUCGAAUGUAAUACAGAAGGAUGGAAUCGGC [Ostracism 71 - Jieux - Exclusion NG 2] (Eterna round: R96, puzzle: Exclusion NG 2)	28.7	17.7	16.6			
AGUAGGUCUACCUUGGUGGAUCUGCAUAAUGCAAGUGUUACAUGAGGAUCACCCAUGUCCUCAUUUGCUCGUCUUAU [JL turnoff v2 99.22] (puzzle: Sensor v3, turn-off variant 2)				39.4	105	43.5
CAGUACCUAGGAUAUACACGGCCACGUGAUACCAAGGAGCAACUUGAGGAUCACCCAAGUAGAAGGAGGUACUG [jl-ex2.4.42 ViennaUCT mod] (Eterna round: R97, puzzle: Exclusion 2)	3200	198				
UUCCUCUUUGUGAGGAUAUCGUCCGUUUUUUGUUACGAGAAGGCACAUGAGGAUCACCCAUGUUUUUUGUUUUU [JR_BMOE4_Sub076] (puzzle: Brourd's mod of Exclusion 4)					21.4	
CUGAGUGGAGGAUAUACAUGAGGAUCACCCAUGUAAAGUAGCUUGCGUACAGGCAGAUGUAGAAGGUCAUUCGG [Mod of JL 12 - Jieux - Exclusion 3] (Eterna round: R97, puzzle: Exclusion 3)	28.2	10.3				
GCUUGAGCUGUGAGGAUAUUUCGAGUGAAAGCUUGAGAGAAGGCACAUGAGGAUCACCCAUGUAAGGUUCGAGU [-26, -23.9 kcal, A 28%, 1bis-1bis] (Eterna round: R97, puzzle: Brourd's mod of Exclusion 4)	13.6	13.2				
UAUAUAUAGUAAGGAUAUGUAUAUACUUUAUAAACAGAAGGUACUGACAUGAGGAUCACCCAUGUUUUAGUGUGGGCAUGUAGA [JMF's solution 57] (Eterna round: R96, puzzle: Exclusion NG 1)			57.1			
AGAUGUAGAUACCGAUCCUACAUGAGGAUCACCCAUGUAGCUAGACGUGCACGCGUAGCUCGUCAGACUACCAGAAG [salish99_TOv1_r3_085] (Eterna round: R96, puzzle: Sensor v3, turn-off variant 1)	461	449	253			
UUUUAGUCAGGAUAUACAUGAGGAUCACCCAUGUAAAAUUUUAAUUUAAUUUUAAGGUGUAGAAGGGACAACCC [Ex3 #13] (Eterna round: R97, puzzle: Exclusion 3)	26.6	32.6				
CCGGUUGGCGCAGGAUAUACAUGAGGAUCACCCAUGUUCAUGAGGAUCACCCAUGAGUUUUUGUUGUAGAAGGGUGGCCCGGCC [A second MS2 with the first and last base exchanged (less A)] (Eterna round: R96, puzzle: Exclusion NG 2)	23.8	29.4	15			
AAAAGAUAAGGAUAUUGAAGGUUCGACAUGAGGAUCACCCAUGUUAUGUUGGAAAAGGGACAAGAAGGUAUGAAAU [salish99_ex5_r4_202] (Eterna round: R97, puzzle: Exclusion 5)	28.6	29.1				
AUUUUGUCAGGAUAUGAGUAGUAGGACGAAAGUGUUAUUAUUUAGAAGGGACAUGAGGAUCACCCAUGUUCCUC [Bring Us a Shrubbery-03] (puzzle: Exclusion 4)					12.1	
UGCAUGCUAGGAUAUACGAAACAUUAGGGUUCUUUGUAUGAACAUGAGGAUCACCCAUGUAGAAGGAGCGUGCU [Mod7 of JL-ex2-2.15 mat747 mod] (puzzle: Exclusion 2)					92.4	

Sequence	apparent KD of MS2 coat protein (input ligand: FMN 200 uM) [nM]	apparent KD of MS2 coat protein (input ligand: none) [nM]	apparent KD of MS2 coat protein [1] [nM]	apparent KD of MS2 coat protein [2] [nM]	apparent KD of MS2 coat protein [3] [nM]	apparent KD of MS2 coat protein [4] [nM]
GACUGCUGAGGAUAUACAUGAGGAUCACCCAUGUGCUUCAGUAUCGAAAGAUGCAUGGGUAGAAGGUGGUAGUC [LRO-Excl3-09] (puzzle: Exclusion 3)					80.1	
AGAAGUAGAAACCGAUCCUACAUGAGGAUCACCCAUGUAGCAAGACGUGCACGCGAAGCUCGUCAGACUACCAGAAG [solution 24] (Eterna round: R96, puzzle: Sensor v2, turn-off variant)	462	345	288			
AAUAACAGGCCGAUCCUAAACAUGAGGAUCACCCAUGUGCGCGUCUUGUAAAGUACUAUCACGAAAGUGAUAGUACA [Sensor v3, turn-off variant 1 (MOD of Eli's v1-59 v.3)] (puzzle: Sensor v3, turn-off variant 1)				41.8	37.1	43.7
AUAGUAGAAGUGAGGAUAUCGUAGAUUUUUUGAAACGAGAAGGCACAUGAGGAUCACCCAUGUAAGAUGGAGGU [JR_BMOE4_Sub052] (puzzle: Brourd's mod of Exclusion 4)				236	219	319
GGACAACAUGAGGAUCACCCAUGUCAGGAUAUGACGGCGUCGGCGAAAGCGGAGGCGGUCAGAAGGGACGGUAA [AK-MS2ROC-r4-exclusion1-10.1] (Eterna round: R97, puzzle: Exclusion 1)	115	51.9				
AGCCACAGAGGAUAUACAUACAUCCAGUGGUUAAGAAUACAACAUGAGGAUCACCCAUGUAGAAGGCUGUGGCA [Omei Ex2 BD B10] (Eterna round: R97, puzzle: Exclusion 2)	394	152				
AGAGUGCUGCGAGGAUAUACAUGAGGAUCACCCAUGUUUACCUGUGAGGCAAAGCCUCACAGGUAGUAGAAGGCGCAGUACUCA [Mat - Exclusion NG 2 - Mod of JL - D43] (Eterna round: R96, puzzle: Exclusion NG 2)	14.6	12.3	14.3			
AGGUGACAUGAGGAUCACCCAUGUAAGGAUAUACGGUUAGUGGAGAGAGGGAAAAGAGGUAGAAGGUACGGAGC [JR_Exclu1_Sub057] (puzzle: Exclusion 1)					156	
UGCGGUAGAGGAUAUACGUAGAAUUAGAUUCAUGUAAAACUACAUGAGGAUCACCCAUGUAGAAGGCUAUCGCU [JL-ex2-4.31 Eli mod] (Eterna round: R97, puzzle: Exclusion 2)	102	19.3				
GAUGUGGGUUUUCAGAGUAACAUGAGGAUCACCCAUGUAGAAGUUGGAGGGAUCAAGCUUUUUGGUCGUCAUAUGUG [JR_SV3TOV1_Sub051] (puzzle: Sensor v3, turn-off variant 1)				442	511	509
GUAGAGUCAGGAUAUACGAGAUCGAUAGAUCGGCGAUCCCUACAUGAGGAUCACCCAUGUAGAAGGGACUCUAC [Mat - Exclusion 2 - Eli Mod - D12] (Eterna round: R97, puzzle: Exclusion 2)	37.6	15.6				
GCUGGUCGAGGAUAUACAUGAGGAUCACCCAUGUGGUUACGUGACGAUAGUCACGAAUGUAGAAGGCGACCAGC [E3/4-A1] (Eterna round: R97, puzzle: Exclusion 3)	2200	295				
AAUAAUCAUGUAGGAUAUGCGUGGCAAAGCUAUGCAGAAGGACAUGAGGAUCACCCAUGUUCUAGCGUCUGAGAACAGAUGCUA [Mat - Exclusion NG 1 - Mod of JL - D82] (Eterna round: R96, puzzle: Exclusion NG 1)	384	41.5	30.2			
GAUUGAGAGCAGGAUAUCUUAGAAAUGUAUUAAAGAGAAGGGCUCACAUGAGGAUCACCCAUGUGGUCCUAGAU [JL Dibiri mod 16] (Eterna round: R96, puzzle: Exclusion 6)	306	26.3	22.8			
GGCAUACCACAAGCUUUUUACAUGAGGAUCACCCAUGUGGUUUUUAGUCUUAUCCCGGGCCCGAUAUCGGGCCCGGG [-33.9, -54.7, A 19%] (Eterna round: R97, puzzle: Sensor, turn-off variant 1)	36.7	38.3				
CUGCUCCGUGUAGGAUAUGCGCGCACCCAACGCGCAGAAGGACAUGAGGAUCACCCAUGUAUGUUAUUAUCACGUGAGGCGCAG [Design 34] (Eterna round: R96, puzzle: Exclusion NG 1)	28.8	17.7	14.4			
